Here are results for one molecule from paper PMC5714204.

What all share (test): fluorescence polarization
For orientation: In fluorescence polarisation assays a small probe gives low polarisation when free and higher when bound to something large.

Data set [1] deals with T1, RNase R Δ3H (Escherichia coli BL21(DE3), UniProt P21499 1-813, del487-545).
T1 sequence: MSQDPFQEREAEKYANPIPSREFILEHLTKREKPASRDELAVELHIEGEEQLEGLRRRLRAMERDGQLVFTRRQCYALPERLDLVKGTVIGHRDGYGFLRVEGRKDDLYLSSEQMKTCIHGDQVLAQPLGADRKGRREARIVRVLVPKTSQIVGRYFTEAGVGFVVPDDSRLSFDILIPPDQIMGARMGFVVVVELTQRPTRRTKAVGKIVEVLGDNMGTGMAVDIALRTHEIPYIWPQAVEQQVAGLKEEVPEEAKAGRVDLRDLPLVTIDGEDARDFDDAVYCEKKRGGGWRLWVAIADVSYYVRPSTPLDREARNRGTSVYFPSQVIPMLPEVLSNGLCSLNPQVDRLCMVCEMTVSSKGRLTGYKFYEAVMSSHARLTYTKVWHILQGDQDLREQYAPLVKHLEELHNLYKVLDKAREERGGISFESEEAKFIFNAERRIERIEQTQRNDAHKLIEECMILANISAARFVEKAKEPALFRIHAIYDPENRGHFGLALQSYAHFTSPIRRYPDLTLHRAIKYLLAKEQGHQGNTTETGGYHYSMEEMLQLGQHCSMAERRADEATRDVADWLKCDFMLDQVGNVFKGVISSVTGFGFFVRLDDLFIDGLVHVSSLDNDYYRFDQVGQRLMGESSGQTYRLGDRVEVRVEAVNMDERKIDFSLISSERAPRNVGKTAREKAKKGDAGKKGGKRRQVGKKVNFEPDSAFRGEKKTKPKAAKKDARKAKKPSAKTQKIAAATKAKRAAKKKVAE

For data set [2], the target named is T2, RNase R 1H (Escherichia coli BL21(DE3), UniProt P21499 1-523+=AQPTGFLDSRIRRFQS+545-813, internal_change).
T2 sequence: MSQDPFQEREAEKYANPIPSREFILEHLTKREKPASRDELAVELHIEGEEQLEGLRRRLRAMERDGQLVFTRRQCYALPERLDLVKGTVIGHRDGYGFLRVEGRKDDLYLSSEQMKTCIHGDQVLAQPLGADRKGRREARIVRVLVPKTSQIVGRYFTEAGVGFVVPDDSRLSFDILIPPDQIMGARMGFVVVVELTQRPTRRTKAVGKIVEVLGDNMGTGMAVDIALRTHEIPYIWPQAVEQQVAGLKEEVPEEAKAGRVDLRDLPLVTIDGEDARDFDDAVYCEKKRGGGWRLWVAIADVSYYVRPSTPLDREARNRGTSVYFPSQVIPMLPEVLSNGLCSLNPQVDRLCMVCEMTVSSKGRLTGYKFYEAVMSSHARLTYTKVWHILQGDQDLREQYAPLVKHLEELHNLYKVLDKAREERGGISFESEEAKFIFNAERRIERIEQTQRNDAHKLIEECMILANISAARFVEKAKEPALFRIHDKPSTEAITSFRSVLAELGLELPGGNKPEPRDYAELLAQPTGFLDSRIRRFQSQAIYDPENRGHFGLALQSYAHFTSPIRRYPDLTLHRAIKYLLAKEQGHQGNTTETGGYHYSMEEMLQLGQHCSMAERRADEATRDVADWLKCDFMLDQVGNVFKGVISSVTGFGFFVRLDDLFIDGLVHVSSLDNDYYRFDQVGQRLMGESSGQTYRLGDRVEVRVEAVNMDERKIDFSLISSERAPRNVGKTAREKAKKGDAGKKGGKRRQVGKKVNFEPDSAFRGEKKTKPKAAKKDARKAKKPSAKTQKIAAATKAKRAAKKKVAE

Data set [3] has as its target T3, RNase R ΔHTH-K (Escherichia coli BL21(DE3), UniProt P21499 87-725).
T3 sequence: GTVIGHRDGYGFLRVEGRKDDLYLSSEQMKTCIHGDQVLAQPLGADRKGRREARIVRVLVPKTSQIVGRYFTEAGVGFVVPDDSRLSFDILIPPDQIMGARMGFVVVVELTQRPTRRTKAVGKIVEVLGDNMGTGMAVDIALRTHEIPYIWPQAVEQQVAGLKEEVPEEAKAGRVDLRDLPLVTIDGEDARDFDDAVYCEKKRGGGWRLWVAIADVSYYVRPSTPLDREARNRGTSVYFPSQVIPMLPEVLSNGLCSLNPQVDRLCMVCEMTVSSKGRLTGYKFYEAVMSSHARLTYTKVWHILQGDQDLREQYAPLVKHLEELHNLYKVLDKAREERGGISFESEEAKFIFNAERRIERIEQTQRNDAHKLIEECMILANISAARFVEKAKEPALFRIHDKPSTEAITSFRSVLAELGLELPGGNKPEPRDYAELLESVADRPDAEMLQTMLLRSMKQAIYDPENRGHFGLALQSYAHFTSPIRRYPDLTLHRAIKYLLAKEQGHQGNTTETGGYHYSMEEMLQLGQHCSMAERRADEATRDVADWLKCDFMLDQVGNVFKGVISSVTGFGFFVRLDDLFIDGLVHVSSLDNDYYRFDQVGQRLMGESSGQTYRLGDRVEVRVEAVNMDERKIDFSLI

Data set [4] concerns the target T4, RNase R (full-length) (Escherichia coli BL21(DE3), UniProt P21499 1-813).
T4 sequence: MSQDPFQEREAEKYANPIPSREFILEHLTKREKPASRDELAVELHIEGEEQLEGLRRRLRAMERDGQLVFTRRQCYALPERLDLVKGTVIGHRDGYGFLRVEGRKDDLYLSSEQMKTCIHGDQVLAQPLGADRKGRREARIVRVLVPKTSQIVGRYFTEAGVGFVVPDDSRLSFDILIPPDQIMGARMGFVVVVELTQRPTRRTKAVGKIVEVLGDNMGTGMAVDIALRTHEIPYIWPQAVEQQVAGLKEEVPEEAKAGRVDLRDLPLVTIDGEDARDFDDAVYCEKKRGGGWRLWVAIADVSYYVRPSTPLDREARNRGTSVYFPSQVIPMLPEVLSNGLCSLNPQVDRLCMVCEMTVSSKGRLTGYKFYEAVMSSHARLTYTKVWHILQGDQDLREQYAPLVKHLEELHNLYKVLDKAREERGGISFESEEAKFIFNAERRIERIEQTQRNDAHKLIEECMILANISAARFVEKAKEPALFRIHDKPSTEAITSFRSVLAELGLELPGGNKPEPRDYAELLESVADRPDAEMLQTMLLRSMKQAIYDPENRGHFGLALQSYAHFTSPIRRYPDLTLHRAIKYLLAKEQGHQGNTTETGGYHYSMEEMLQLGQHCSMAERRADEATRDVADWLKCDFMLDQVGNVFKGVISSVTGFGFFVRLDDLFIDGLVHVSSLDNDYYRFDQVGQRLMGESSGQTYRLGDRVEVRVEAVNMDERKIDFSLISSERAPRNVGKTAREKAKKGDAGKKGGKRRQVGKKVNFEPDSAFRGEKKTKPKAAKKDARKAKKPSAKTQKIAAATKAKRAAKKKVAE

One may read the Kd as the free concentration of one partner at which half of the binding sites on the other are occupied at equilibrium, for simple one-to-one binding. Read a high Kd as weaker binding.

For AAAAAAAAAAAAAAAAAAAAAAAAAAAAAA (ssRNA) [Cy3-poly(A)30 ssRNA], the Kd in data set [1] was 23.8 ± 2.6 nM; in data set [2], 9.9 ± 1 nM; in data set [3] it was 8.6 ± 1 nM; in data set [4], 11.2 ± 1.2 nM.
